2 substances from publication PMC7088246 can be followed below.

In this assay the target is recombinant glycosylated HIV-1 IIIB gp120 (baculovirus) (HIV-1 IIIB) (UniProt P04578). As to the kind of experiment: SPR. For orientation: SPR reads the build-up and loss of mass on a sensor chip optically.

Take “His-tagged recombinant KAA-1 (natural protein)”: the Ka was found to be 1.48e+09 M⁻¹; the Kd (in general, the constant that tells how readily two partners part at equilibrium) stood at 0.677 nM; the kon (as a rule, the rate constant with which the complex forms) was determined as 871000 M⁻¹ s⁻¹.

“recombinant KAA-1 (His tag removed by thrombin) (natural protein)”: the Ka was 1.61e+09 M⁻¹; the Kd is 0.622 nM; the koff – broadly, a measure of how fast the partners let go of each other – worked out at 0.000529 s⁻¹.
